The target of this experiment is CD3 on T cells (Jurkat T cells; primary human T cells) (human, UniProt P07766 23-207; P04234 22-171; P09693 23-182). The experiment is described as follows: flow cytometry on Jurkat T cells, APC-conjugated anti-His tag secondary antibody. On the technique in general: In flow cytometry, cells or beads pass a laser one at a time.

This note sets out measurements from patent US20250353931A1 (CHIMERIS UK, published 2025).

Sequence of CD3 on T cells (Jurkat T cells; primary human T cells) (P07766 23-207 limits assumed, chain 1 of 3): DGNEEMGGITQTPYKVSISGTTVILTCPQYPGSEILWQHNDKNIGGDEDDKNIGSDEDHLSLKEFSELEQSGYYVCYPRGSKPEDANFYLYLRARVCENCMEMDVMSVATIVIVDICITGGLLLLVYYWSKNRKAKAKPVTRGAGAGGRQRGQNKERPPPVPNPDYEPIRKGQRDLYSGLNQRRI
Sequence of CD3 on T cells (Jurkat T cells; primary human T cells) (P04234 22-171 limits assumed, chain 2 of 3): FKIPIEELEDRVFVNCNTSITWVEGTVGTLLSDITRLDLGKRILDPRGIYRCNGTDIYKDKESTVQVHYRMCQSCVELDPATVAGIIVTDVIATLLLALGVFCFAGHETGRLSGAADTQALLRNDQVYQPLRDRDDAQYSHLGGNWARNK
Sequence of CD3 on T cells (Jurkat T cells; primary human T cells) (P09693 23-182 limits assumed, chain 3 of 3): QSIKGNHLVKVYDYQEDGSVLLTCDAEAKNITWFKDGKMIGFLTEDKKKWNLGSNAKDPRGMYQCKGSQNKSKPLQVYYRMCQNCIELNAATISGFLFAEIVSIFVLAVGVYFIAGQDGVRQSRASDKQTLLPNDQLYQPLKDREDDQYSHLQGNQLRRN
Protocol: Each multi-specific reagent was then screened for binding to Jurkat T cells. Jurkat T cells were plated into individual wells of a 96-well plate (˜100,000 cells per well in 200 ul ImmunoCult™-XF T Cell Expansion Medium (StemCell Technologies)). […] As a control, CHO cell culture medium alone was added. Following incubation for two hours, cells were washed and stained in 50 μl FACS buffer (PBS (Gibco)/2% FBS (LabTech)) containing a 1/100 dilution of an APC-conjugated anti-His tag secondary antibody (BioLegend). Cells were washed again and resuspended in 100 μl FACS buffer plus 0.1 μg/ml DAPI live/dead staining dye (Roche). Cell samples were run on a MACSQuant® Analyzer 10 Flow Cytometer and analyzed using the FlowJo (v10) software.

B1: CM04P (anti-PEG _ anti-EpCAM) (bispecific antibody)
chain: QIQLVQSGPELKKPGETVKISCKASGYTFKNYGMNWVKQAPGKGLKWMGWINTYTGQPIYANDFKGRFAFSLETSASTAYLQINNLKNEDTATYFCARDWGPYWGQGTLVIVSASPNSASHSGSAPQTSSAPGSQNIMMTQSPSSLAVSAGEKVTVNCKSSQSVLYSSNQMNYLAWYQQKPGQSPKLLIYWASTRESGVPDRFTGSGSGTDFTLTISSVQTEDLAVYYCLQYLSSWTFGGGTKLEIKGGSSRSSSSGGGGSGGGGQVKLQQSGPELKKPGETVKISCKASGYTFTNYGMNWVKQAPGKGLKWMGWINTYTGESTYADDFKGRFAFSLETSASAAYLQINNLKNEDTATYFCARFAIKGDYWGQGTTVTVSSSPNSASHSGSAPQTSSAPGSQDIVLTQSPFSNPVTLGTSASISCRSTKSLLHSNGITYLYWYLQKPGQSPQLLIYQMSNLASGVPDRFSSSGSGTDFTLRISRVEAEDVGVYYCAQNLEIPRTFGGGTKLEIKGGGGSHHHHHHHH
notes: Intended as a negative control; also called αPEG/αEPCAM
Turning to B1, the binding result is recorded as “no binding (tested: 20 µl of CHO culture supernatant)”.
